Measurements from patent US20230272390A1, “COMPOSITIONS AND METHODS FOR HEMOGLOBIN PRODUCTION” (THE CHILDREN'S HOSPITAL OF PHILADELPHIA, priority 2020, published 2023).

Test system: negative control oligo (shares 7/17 bp with the consensus motif)
Assay: Fluorescence polarization DNA binding assay, negative control oligo
Conditions: same conditions
Method: The fragment of Human ZNF410 (NP_001229855.1) comprising of five zinc finger domains ZF1-5 (residues 217-366) was cloned into pGEX-6P-1 vector with a GST fusion tag (pXC2180). The plasmid was transformed into Escherichia coli strain BL21-Codon-plus(DE3)-RIL (Stratagene). Bacteria was grown in LB broth in a shaker at 37° C. until reaching the log phase (A600 nm between 0.4 and 0.5), the shaker temperature was then set to 16° C. and 25 μM ZnCl2 was added to the cell culture. When the shaker temperature reached 16° C. and A600 nm reached ˜0.8, the protein expression was induced by the addition of 0.2 mM isopropyl-3-D-thiogalactopyranoside with subsequent growth for 20 hours at 16° C. […]
Fluorescence polarization (FP) method was used to measure the binding affinity using a Synergy™ 4 Microplate Reader (BioTek). […]
To further gain insight into the molecular basis of how the ZNF410 tandem ZF domain recognizes its targeting DNA sequence, crystallization of the ZNF410-DNA complex was performed. The binding affinity of the ZNF410 ZF domain (ZF1-5) with the consensus motif was quantified by fluorescence polarization using purified GST fusion protein (Patel, et al. (2016) Methods Enzymol., 573:387-401). […]

B1: ZF1-5: fragment of human ZNF410 comprising five zinc finger domains ZF1-5 (residues 217-366); dominant-negative when overexpressed (protein)
chain: KKLKCTVEGCDRTFVWPAHFKYHLKTHRNDRSFICPAEGCGKSFYVLQRLKVHMRTHNGEKPFMCHESGCGKQFTTAGNLKNHRRIHTGEKPFLCEAQGCGRSFAEYSSLRKHLVVHSGEKPHQCQVCGKTFSQSGSRNVHMRKHHLQLG
modifications: left off: small tags and cut ends
notes: fragment of human ZNF410 comprising five zinc finger domains ZF1-5 (residues 217-366); dominant-negative when overexpressed
- binding to the negative control oligo: no measurable binding
